T1: RBP SH3-III (ITC construct) (D. melanogaster)
T1 chain: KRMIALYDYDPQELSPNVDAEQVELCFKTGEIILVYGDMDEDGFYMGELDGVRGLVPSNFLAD

T2: RBP SH3-II+III (ITC construct) (D. melanogaster)
T2 chain: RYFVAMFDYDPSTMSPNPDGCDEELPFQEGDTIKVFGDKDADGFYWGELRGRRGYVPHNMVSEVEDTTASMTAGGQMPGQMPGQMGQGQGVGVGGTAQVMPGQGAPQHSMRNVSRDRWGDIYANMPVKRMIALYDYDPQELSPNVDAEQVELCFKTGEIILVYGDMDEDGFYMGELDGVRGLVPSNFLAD

T3: RBP SH3-II (residue 1318–1382; ITC and crystallisation construct) (D. melanogaster)
T3 chain: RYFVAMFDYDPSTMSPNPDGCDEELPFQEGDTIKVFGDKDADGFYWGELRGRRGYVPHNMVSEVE

T4: RBP SH3-II (residue 1318–1382; ITC and crystallisation construct) (D. melanogaster)
T4 construct: pGEX-6P1, EcoRI/XhoI; also called RBP-BP SH3-II; source: E. coli BL21-CodonPlus-RIL, purified (glutathione sepharose, PreScission cleavage, Superdex 75); not shown: GST, N-terminal, cleaved
T4 chain: T3 chain

T5: RBP SH3-II+III (ITC construct) (D. melanogaster)
T5 construct: Cloning and purification of this construct are not described; also called tandem SH3-II+III; RBP-BP SH3-II+SH3-III
T5 chain: T2 chain

T6: RBP SH3-III (ITC construct) (D. melanogaster)
T6 construct: it may be the same protein; also called RBP-BP SH3-III
T6 chain: T1 chain

T7: RBP SH3-III (residue 1441–1507; crystallisation construct) (D. melanogaster)
T7 construct: pGEX-6P1, EcoRI/XhoI; linker residues may remain at the N-terminus after PreScission cleavage; source: E. coli BL21-CodonPlus-RIL, purified (glutathione sepharose, PreScission cleavage, Superdex 75); not shown: GST, N-terminal, cleaved
T7 chain: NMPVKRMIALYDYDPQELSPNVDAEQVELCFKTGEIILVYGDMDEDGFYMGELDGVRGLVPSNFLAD

B1: Aplip-PxxP1 peptide (149-TRRRRKLPEIPKNKK-163) (peptide)
peptide: Ac-TRRRRKLPEIPKNKK-NH2
notes: Aplip1, D. melanogaster, residues 149-163 with the first PxxP motif; also called Aplip1 peptide; Aplip1-PxxP1 peptide; source: synthetic peptide (Leibniz Institute for Molecular Pharmacology)
B2: RIM2 peptide (GRQLPQLPPKGT) (peptide)
peptide: Ac-GRQLPQLPPKGT-NH2
notes: PxxP peptide named RIM2; May be a mammalian RIM2 motif or one of two motifs of Drosophila RIM; source: synthetic peptide (Leibniz Institute for Molecular Pharmacology)
B3: RIM1 peptide (GRQLPQVPVRSG) (peptide)
peptide: Ac-GRQLPQVPVRSG-NH2
notes: PxxP peptide named RIM1; May be a mammalian RIM1 motif or one of two motifs of Drosophila RIM; source: synthetic peptide (Leibniz Institute for Molecular Pharmacology)
B4: Cac peptide (1685-IGRRLPPTPSKPSTL-1699) (peptide)
peptide: Ac-IGRRLPPTPSKPSTL-NH2
notes: also called Cacophony peptide; Cac-derived peptide; source: synthetic peptide (Leibniz Institute for Molecular Pharmacology)

Tests used:
RBP SH3-III = test: Semi-quantitative liquid Y2H ß-galactosidase assay, bait RBP SH3-III; assay type: cell-based, Drosophila; settings: n = 3 independent experiments, mean ± SEM
Description: (§1) The plasmids (pP6 and pB27) encode tryptophan (Trp) and leucine (Leu) biosynthesis genes, and were successfully double transformed into the TATA strain lacking genes for synthesis of Leu and Trp which can be followed by positive growth in LT media. Reporter genes for the protein–protein interaction are HIS3, which can be later detected by growth on plates lacking histidin, as well as lacZ which allows the detection of interaction in a more quantitative fashion with a β-galactosidase assay. To transform the yeast cells with the pP6 and pB27 vector respectively the LiAc/single strand DNA/PEG technique was used ([Gietz and Schiestl, 2007]).
(§2) The assay was carried out as described in JH Miller ‘Experiments in Molecular Genetics’ 1972 Cold Spring Harbor Laboratories pages 352–355.
(§3) The RBP constructs for Y2H were cloned into pB27 bait vector. The RBP cDNA clone AT04807 (Drosophila Genomics Resource Centre) was used as a template for PCR reaction. For amplification the following primers were used: […]

RBP SH3-II = test: Semi-quantitative liquid Y2H ß-galactosidase assay, bait RBP SH3-II; assay type: cell-based, Drosophila; settings: n = 3 independent experiments, mean ± SEM
Description: as §1, §2, §3

RBP SH3-II+III = test: Isothermal titration calorimetry (ITC), peptide titrated into tandem RBP SH3-II+III; assay type: binding, Drosophila; settings: second and third SH3 domain of RBP
Method: ITC experiments were performed at 25°C on an iTC200 microcalorimeter (Malvern Instruments Ltd., United Kingdom). The same peptides were employed as used for the co-crystallization experiments (see below). Lyophilized peptides were resuspended in the final buffer of the proteins (10 mM Tris-HCl pH 7.4, 100 mM NaCl). RBP SH3-II and SH3-III were both provided at a concentration of 150 µM, RBP SH3-II+III was provided at 78 µM. The proteins were titrated with 16 injections of 2.5 µl of either Aplip1, Cac, RIM1 or RIM2 peptide at a concentration of 2 mM with 2-min intervals. The released heat was obtained by integrating the calorimetric output curves. Binding parameters were calculated using the Origin5 software using the ‘One Set of Sites’ curve fitting model provided by the software.
For crystallization experiment the RBP SH3-II was concentrated to 56 mg/ml and the RBP SH3-III to 62 mg/ml. The same peptides as for ITC measurements were used and synthesized at the Leibniz Institute for Molecular Pharmacology with N-terminal acetylation and C-terminal amidation. The unsolubilized peptides were mixed in a fivefold molar excess with the protein solution and incubated for 2 hr on ice. Insoluble peptide was removed by centrifugation (16,000×g for 1 min) prior to crystallization experiments. All crystallization experiments were carried out at 291 K in a sitting drop setup. […]

RBP SH3-I = test: Isothermal titration calorimetry (ITC), peptide titrated into RBP SH3-I; assay type: binding, Drosophila; settings: 25°C, result in words
[1] = test system: RBP SH3-III* (Prolin1500 → Leucin); test: Semi-quantitative liquid Y2H ß-galactosidase assay, bait point-mutated RBP SH3-III*; assay type: cell-based, Drosophila; settings: n = 3 independent experiments, mean ± SEM
Description: as §1, §2
(§4) By applying the site-directed mutagenesis strategy, different constructs were designed for RBP using mutated primers. Mutagenesis was carried out by Dr Martin Meixner (SMB. GmbH, Germany,). The following point mutations were used:
RBP SH3-III*: Prolin1500 → Leucin

[2] = test system: RBP SH3-II* (Prolin1373 → Leucin); test: Semi-quantitative liquid Y2H ß-galactosidase assay, bait point-mutated RBP SH3-II*; assay type: cell-based, Drosophila; settings: n = 3 independent experiments, mean ± SEM
Description: as §1, §2, §4
RBP SH3-II*: Prolin1373 → Leucin

[3] = molecular target: T1, RBP SH3-III (ITC construct, letters as …); test: ITC
[4] = molecular target: T2, RBP SH3-II+III (ITC construct); test: ITC
[5] = molecular target: T3, RBP SH3-II (residue 1318–1382; ITC and …); test: ITC
[6] = molecular target: T4, RBP SH3-II (residue 1318–1382; ITC and …); test: crystal structure; co-crystallisation of the SH3 domain with a fivefold molar excess of peptide, sitting drop, 291 K; settings: both partners purified
[7] = molecular target: T5, RBP SH3-II+III (ITC construct); test: ITC; 25°C, iTC200; RBP SH3-II and SH3-III at 150 µM, SH3-II+III at 78 µM in the cell, titrated with 16 injections of 2.5 µl peptide at 2 mM; 10 mM Tris-HCl pH 7.4, 100 mM NaCl; 'One Set of Sites' model; settings: both partners purified
[8] = molecular target: T6, RBP SH3-III (ITC construct, letters as …); test: as above; settings: both partners purified
[9] = molecular target: T4, RBP SH3-II (residue 1318–1382; ITC and …); test: as above; settings: both partners purified
[10] = molecular target: T7, RBP SH3-III (residue 1441–1507; …); test: crystal structure; co-crystallisation of the SH3 domain with a fivefold molar excess of peptide, sitting drop, 291 K; settings: both partners purified

Molecule | mean ß-Gal4 units: RBP SH3-III (RBP SH3-III) | mean ß-Gal4 units: RBP SH3-II (RBP SH3-II) | Kd [3] | Kd [4] | Kd [5] | binding result [8] | also measured
LLGGSNFGSLADEFRNGGGGGIPPAVRSGQQRSFLSLKCGYLMDEDSSPDSERMQSLGDVDSGHSTAHSPNDFKSMSPQITSPVSQSPFPPPFGGVPFGQ [Aplip1-PxxP2, Y2H prey fragment of Aplip1 (100 AA) containing only the second PxxP motif] | 0.2 ± 0.1 ß-Gal4 units | 0.2 ± 0.0 ß-Gal4 units |  |  |  |  | 
EDDELGDGLKVTLSSDGSLDTNDSFNSHRHHPLNHQDAIGGFLGMDTSGLGGNSAPVTIGASTDLLAPNTAATRRRRKLAEIAKNKKSSILHLLGGSNFGSLADEFRNGGGGGIPPAVRSGQQRSFLSLKCGYLMDEDS [Aplip1-AxxA1, Y2H prey fragment of Aplip1 (139 AA) with mutated first PxxP motif (P156 → A; P159 → A)] | 0.2 ± 0.0 ß-Gal4 units | 0.1 ± 0.1 ß-Gal4 units |  |  |  |  | 
Ac-TRRRRKLPEIPKNKK-NH2 [Aplip1] |  |  |  |  |  |  | affinity relative to RBP binding of its synaptic ligands (Ca2+ channels/RIM) (RBP SH3-II+III): more than 10 fold; binding to RBP SH3-I (RBP SH3-I): could not detect any binding
EDDELGDGLKVTLSSDGSLDTNDSFNSHRHHPLNHQDAIGGFLGMDTSGLGGNSAPVTIGASTDLLAPNTAATRRRRKLPEIPKNKKSSILHLLGGSNFGSLADEFRNGGGGGIPPAVRSGQQRSFLSLKCGYLMDEDS [Aplip1-PxxP1, Y2H prey fragment of Aplip1 (139 AA) containing only the first PxxP motif] | 29.1 ± 7.4 ß-Gal4 units | 24.3 ± 6.6 ß-Gal4 units |  |  |  |  | mean ß-Gal4 units: RBP SH3-III* [1]: 0.1 ± 0.0 ß-Gal4 units; mean ß-Gal4 units: RBP SH3-II* [2]: 0.1 ± 0.0 ß-Gal4 units
B1 |  |  | 1.4 µM | 0.54 µM | 4.1 µM | binds | binding result [6]: binds; binding result [7]: binds
B2 |  |  | 12.5 µM | 35.7 µM | 20 µM | binds | binding result [9]: binds
B3 |  |  | 8.4 µM | 16 µM | 10.4 µM | binds | binding result [9]: binds
B4 |  |  | 17.3 µM | 31.3 µM | 20.2 µM | binds | binding result [10]: binds; binding result [6]: binds

— article PMC4536467, “A high affinity RIM-binding protein/Aplip1 interaction prevents the formation of ectopic axonal active zones” (eLife, 2015)
